Test results from publication PMC8487046 (2021).

Target: acetylated BSA (AcBSA) (bovine (from the name BSA), UniProt P02769 25-607, acetylated (lysyl acetylation); extent not stated)
Assay: SPR

acetylated BSA (AcBSA), sequence (P02769 25-607): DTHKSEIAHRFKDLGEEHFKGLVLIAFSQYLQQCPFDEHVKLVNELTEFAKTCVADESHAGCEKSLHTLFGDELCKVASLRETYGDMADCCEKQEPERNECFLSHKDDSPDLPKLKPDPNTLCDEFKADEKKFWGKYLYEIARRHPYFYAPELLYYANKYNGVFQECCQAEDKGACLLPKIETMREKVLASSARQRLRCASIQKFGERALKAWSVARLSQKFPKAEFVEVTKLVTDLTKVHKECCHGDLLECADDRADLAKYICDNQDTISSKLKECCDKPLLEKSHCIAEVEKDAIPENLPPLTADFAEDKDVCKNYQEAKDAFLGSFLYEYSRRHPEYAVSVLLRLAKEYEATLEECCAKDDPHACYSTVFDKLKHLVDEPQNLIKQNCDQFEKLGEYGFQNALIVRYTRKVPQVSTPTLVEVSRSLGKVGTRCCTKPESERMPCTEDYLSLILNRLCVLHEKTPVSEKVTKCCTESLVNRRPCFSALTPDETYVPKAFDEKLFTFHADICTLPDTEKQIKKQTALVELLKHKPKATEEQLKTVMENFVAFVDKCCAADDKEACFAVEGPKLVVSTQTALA

- Kd: 917 nM
B1: SR‐F1(20‐421), SR‐F1 ectodomain (domain or fragment)
chain: SELDPKGQHVCVASSPSAELQCCAGWRQKDQECTIPICEGPDACQKDEVCVKPGLCRCKPGFFGAHCSSRCPGQYWGPDCRESCPCHPHGQCEPATGACQCQADRWGARCEFPCACGPHGRCDPATGVCHCEPGWWSSTCRRPCQCNTAAARCEQATGACVCKPGWWGRRCSFRCNCHGSPCEQDSGRCACRPGWWGPECQQQCECVRGRCSAASGECTCPPGFRGARCELPCPAGSHGVQCAHSCGRCKHNEPCSPDTGSCESCEPGWNGTQCQQPCLPGTFGESCEQQCPHCRHGEACEPDTGHCQRCDPGWLGPRCEDPCPTGTFGEDCGSTCPTCVQGSCDTVTGDCVCSAGYWGPSCNASCPAGFHGNNCSVPCECPEGLCHPVSGSCQPGSGSRDT
